Results: US20240067944A1 (published 2024)
No end group written: not given here.

How the values were obtained:
Assay in all cases: ELISA, biotinylated 12-mer peptide on streptavidin, 2 ug/mL FLAG-tagged VHH, anti-FLAG-HRP
[1] = biological target: T1, AQATSSSGEAPD (human)
T1 peptide: AQATSSSGEAPD-biotin
Description: (§1) To determine whether the binding epitope of the anti-FX VHH polypeptide designated “cmpd #1” are located inside the activation peptide (AP) of human FX (SEQ ID NO:2), an ELISA assay was setup. 41 unique 12-mer peptide fragments spanning the 52 residues of the activation peptide with one amino acid spacing were immobilized in microtiter plate wells followed by incubation with the VHH polypeptide to be tested, and detection of bound ligand was performed by addition of a secondary HRP-labelled antibody.
(§2) The peptides were C-terminally conjugated to biotin and 50 μL of 1 μg/mL peptide solution was used for immobilization in discrete wells of the microtiter plate which was pre-coated with 1 μg/mL streptavidin. Each well was washed with washing buffer (10 mM Tris, 150 mM NaCl, 2.5 mM CaCl₂), 0.05% Tween 20, pH 8.60) followed by addition of 50 μL of 2 μg/mL FLAG-tagged anti-FX VHH polypeptide or IgG antibody to be tested. After 1 hour non-bound VHH polypeptide was washed off using washing buffer.
(§3) Bound anti-FX activation peptide ligand was detected by first binding a HRP-labelled secondary antibody (for FLAG-tagged VHH polypeptide: Anti-FLAG mAb M2-Peroxidase (HRP) (Sigma Aldrich, US) for 1 hour, and then adding 100 μL TMB-1 ELISA substrate (Kem-En-Tec Diagnostics, Denmark).

[2] = biological target: T2, QATSSSGEAPDS (human)
T2 peptide: QATSSSGEAPDS-biotin
Description: as §1, §2, §3

[3] = biological target: T3, SSSGEAPDSITW (human)
T3 peptide: SSSGEAPDSITW-biotin
Description: as §1, §2, §3

[4] = biological target: T4, SSGEAPDSITWK (human)
T4 peptide: SSGEAPDSITWK-biotin
Description: as §1, §2, §3

[5] = biological target: T5, SGEAPDSITWKP (human)
T5 peptide: SGEAPDSITWKP-biotin
Description: as §1, §2, §3

[6] = biological target: T6, EAPDSITWKPYD (human)
T6 peptide: EAPDSITWKPYD-biotin
Description: as §1, §2, §3

[7] = biological target: T7, APDSITWKPYDA (human)
T7 peptide: APDSITWKPYDA-biotin
Description: as §1, §2, §3

[8] = biological target: T8, DSITWKPYDAAD (human)
T8 peptide: DSITWKPYDAAD-biotin
Description: as §1, §2, §3

[9] = biological target: T9, YDAADLDPTENP (human)
T9 peptide: YDAADLDPTENP-biotin
Description: as §1, §2, §3

[10] = biological target: T10, AADLDPTENPFD (human)
T10 peptide: AADLDPTENPFD-biotin
Description: as §1, §2, §3

[11] = biological target: T11, ADLDPTENPFDL (human)
T11 peptide: ADLDPTENPFDL-biotin
Description: as §1, §2, §3

[12] = biological target: T12, PTENPFDLLDFN (human)
T12 peptide: PTENPFDLLDFN-biotin
Description: as §1, §2, §3

[13] = biological target: T13, ENPFDLLDFNQT (human)
T13 peptide: ENPFDLLDFNQT-biotin
Description: as §1, §2, §3

[14] = biological target: T14, PFDLLDFNQTQP (human)
T14 peptide: PFDLLDFNQTQP-biotin
Description: as §1, §2, §3

[15] = biological target: T15, FDLLDFNQTQPE (human)
T15 peptide: FDLLDFNQTQPE-biotin
Description: as §1, §2, §3

[16] = biological target: T16, DFNQTQPERGDN (human)
T16 peptide: DFNQTQPERGDN-biotin
Description: as §1, §2, §3

[17] = biological target: T17, NQTQPERGDNNL (human)
T17 peptide: NQTQPERGDNNL-biotin
Description: as §1, §2, §3

[18] = biological target: T18, QTQPERGDNNLT (human)
T18 peptide: QTQPERGDNNLT-biotin
Description: as §1, §2, §3

B1: Cmpd #1 (monovalent anti-FX VHH polypeptide, VHH-1.1) (VHH)
VHH: EVQLVESGGGLVQPGGSLRLSCAASGSIGAFDAMGWYRQAPGKQRELVAGIMVSRGNTNYTDSVKGRFTISRDNAKNTVYLQMNSLKPEDTAVYYCKAVKRPGPGYLEVWGQGTLVTVSS
notes: No protractor
ELISA signal normalized relative to the background signal [1]: 0.97 relative to background | ELISA signal normalized relative to the background signal [2]: 0.96 relative to background | ELISA signal normalized relative to the background signal [3]: 0.86 relative to background | ELISA signal normalized relative to the background signal [4]: 0.88 relative to background | ELISA signal normalized relative to the background signal [5]: 0.88 relative to background | ELISA signal normalized relative to the background signal [6]: 0.97 relative to background | ELISA signal normalized relative to the background signal [7]: 1.06 relative to background | ELISA signal normalized relative to the background signal [8]: 1.08 relative to background | ELISA signal normalized relative to the background signal [9]: 0.87 relative to background | ELISA signal normalized relative to the background signal [10]: 0.88 relative to background | ELISA signal normalized relative to the background signal [11]: 0.91 relative to background | ELISA signal normalized relative to the background signal [12]: 4.58 relative to background | ELISA signal normalized relative to the background signal [13]: 4 relative to background | ELISA signal normalized relative to the background signal [14]: 4.95 relative to background | ELISA signal normalized relative to the background signal [15]: 4.38 relative to background | ELISA signal normalized relative to the background signal [16]: 0.94 relative to background | ELISA signal normalized relative to the background signal [17]: 0.92 relative to background | ELISA signal normalized relative to the background signal [18]: 0.88 relative to background
